Source: EP4674868A1 (Jiangsu Hengrui Pharmaceuticals Co., Ltd., dated 2026)
Where two headings read alike, the source gives them in different places.

What was measured:
[1] = target: T1, human CD40 on the surface of HEK293 cells (HEK293-HuCD40) (human, UniProt P25942 21-277); assay: FACS, HEK293-HuCD40 cells
T1 construct: whole, on cells; Also used as the target of the CD40/NF-κB reporter assays in HEK-Blue CD40L cells; also called cell strain highly expressing human CD40; CD40 of HEK-Blue CD40L reporter cells

[2] = target: T2, human 4-1BB on the surface of HEK293 cells (HEK293-Hu4-1BB) (human, UniProt Q07011 24-255); assay: cell-based or functional assay
[3] = target: T2, human 4-1BB on the surface of HEK293 …; assay: FACS, HEK293-Hu4-1BB cells
[4] = target: T2, human 4-1BB on the surface of HEK293 …; assay: cell-based or functional assay; remark: listed apart in the source
[5] = target: T2, human 4-1BB on the surface of HEK293 …; assay: FACS, HEK293-Hu4-1BB cells; remark: listed apart in the source
[6] = target: T1, human CD40 on the surface of HEK293 …; assay: FACS, HEK293-HuCD40 cells; remark: listed apart in the source
[7] = target: T1, human CD40 on the surface of HEK293 …; assay: FACS, HEK293-HuCD40 cells; remark: listed apart in the source
[8] = target: T2, human 4-1BB on the surface of HEK293 …; assay: cell-based or functional assay; remark: listed apart in the source
[9] = target: T1, human CD40 on the surface of HEK293 …; assay: cell-based or functional assay
[10] = target: T3, human FAP on the surface of CHO-K1 cells (CHO-K1-HuFAP) (human, UniProt Q12884 1-760); assay: FACS, CHO-K1-HuFAP cells
T3 construct: whole, on cells; also called CHO cell line overexpressing human FAP; FAP on the surface of CHO-K1-HuFAP cells

[11] = target: T1, human CD40 on the surface of HEK293 …; assay: cell-based or functional assay; remark: listed apart in the source
[12] = target: T3, human FAP on the surface of CHO-K1 …; assay: FACS, CHO-K1-HuFAP cells; remark: listed apart in the source
[13] = target: T2, human 4-1BB on the surface of HEK293 …; assay: FACS, HEK293-Hu4-1BB cells; remark: listed apart in the source
[14] = target: T3, human FAP on the surface of CHO-K1 …; assay: FACS, CHO-K1-HuFAP cells; remark: listed apart in the source

B1: RO7122290 (FAP/4-1BBL bispecific antibody molecule, control) (bispecific antibody, human IgG1, kappa, L234A L235A)
heavy 1: not shown
heavy 2: EVQLLESGGGLVQPGGSLRLSCAASGFTFSSYAMSWVRQAPGKGLEWVSAIIGSGASTYYADSVKGRFTISRDNSKNTLYLQMNSLRAEDTAVYYCAKGWFGGFNYWGQGTLVTVSSASTKGPSVFPLAPSSKSTSGGTAALGCLVKDYFPEPVTVSWNSGALTSGVHTFPAVLQSSGLYSLSSVVTVPSSSLGTQTYICNVNHKPSNTKVDKKVEPKSCDKTHTCPPCPAPEAAGGPSVFLFPPKPKDTLMISRTPEVTCVVVDVSHEDPEVKFNWYVDGVEVHNAKTKPREEQYNSTYRVVSVLTVLHQDWLNGKEYKCKVSNKALGAPIEKTISKAKGQPREPQVCTLPPSRDELTKNQVSLSCAVKGFYPSDIAVEWESNGQPENNYKTTPPVLDSDGSFFLVSKLTVDKSRWQQGNVFSCSVMHEALHNHYTQKSLSLSPGK
light 1: not shown
light 2: EIVLTQSPGTLSLSPGERATLSCRASQSVTSSYLAWYQQKPGQAPRLLINVGSRRATGIPDRFSGSGSGTDFTLTISRLEPEDFAVYYCQQGIMLPPTFGQGTKVEIKRTVAAPSVFIFPPSDEQLKSGTASVVCLLNNFYPREAKVQWKVDNALQSGNSQESVTEQDSKDSTYSLSSTLTLSKADYEKHKVYACEVTHQGLSSPVTKSFNRGEC
With B1 the Maximum fluorescence value [1] was 89, the “4-1BB/NF-κB luciferase reporter, CD40-crosslinked, Fold change in Emax” value [2] was 1.22 fold and the “4-1BB/NF-κB luciferase reporter, FAP-crosslinked, EC50” value [2] was 0.032 nM. For the same binder, the “4-1BB/NF-κB luciferase reporter, FAP-crosslinked, Fold change in Emax” value [2] was 9.38 fold, the “4-1BB/NF-κB luciferase reporter, uncrosslinked, Fold change in Emax” value [2] was 3.6 fold and the EC50 [3] was 0.573 nM. The Maximum fluorescence value [3] was 8440, the “4-1BB/NF-κB luciferase reporter, CD40-crosslinked, Fold change in Emax” value [4] was 1.77 fold and the “4-1BB/NF-κB luciferase reporter, FAP-crosslinked, EC50” value [4] was 0.04 nM. The “4-1BB/NF-κB luciferase reporter, FAP-crosslinked, Fold change in Emax” value [4] was 15.4 fold, the “4-1BB/NF-κB luciferase reporter, uncrosslinked, Fold change in Emax” value [4] was 6.03 fold and the Maximum fluorescence value [5] was 10800. For the same binder, the Maximum fluorescence value [6] was 106, the Maximum fluorescence value [7] was 2330 and the “4-1BB/NF-κB luciferase reporter, CD40-crosslinked, Fold change in Emax” value [8] was 2.3 fold. For the same binder, the “4-1BB/NF-κB luciferase reporter, FAP-crosslinked, EC50” value [8] was 0.04 nM, the “4-1BB/NF-κB luciferase reporter, FAP-crosslinked, Fold change in Emax” value [8] was 9.95 fold and the “4-1BB/NF-κB luciferase reporter, uncrosslinked, Fold change in Emax” value [8] was 5.97 fold. The “CD40/NF-κB reporter (HEK-Blue CD40L), 4-1BB-crosslinked, Fold change in Emax” value [9] was 1 fold, the “CD40/NF-κB reporter (HEK-Blue CD40L), FAP-crosslinked, Fold change in Emax” value [9] was 1 fold and the “CD40/NF-κB reporter (HEK-Blue CD40L), uncrosslinked, Fold change in Emax” value [9] was 0.98 fold. For the same binder, the EC50 [10] was 2.48 nM, the Maximum fluorescence value [10] was 44200 and the “CD40/NF-κB reporter (HEK-Blue CD40L), 4-1BB-crosslinked, Fold change in Emax” value [11] was 1 fold. The “CD40/NF-κB reporter (HEK-Blue CD40L), FAP-crosslinked, Fold change in Emax” value [11] was 1 fold, the “CD40/NF-κB reporter (HEK-Blue CD40L), uncrosslinked, Fold change in Emax” value [11] was 0.99 fold and the EC50 [12] was 1.92 nM. The Maximum fluorescence value [12] was 112000, the EC50 [13] was 0.67 nM and the Maximum fluorescence value [13] was 8200. It also gave an EC50 [14] of 1.33 nM and a Maximum fluorescence value [14] of 48400.
